From the supplement of paper PMC9112550, “Optimization of the antimicrobial peptide Bac7 by deep mutational scanning” (BMC Biology, 2022)

Test system: Escherichia coli TOP10
Test: shrunken log2 fold change of peptide-encoding DNA abundance (4.5 h post-induction vs induction); higher = less antimicrobial activity (less host growth inhibition)
Conditions: time post-induction: 4.5 h; library: site-saturation at positions 5, 18, 19, 20
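Note: peptides expressed intracellularly from a pBAD plasmid library in pooled LB shake-flask culture, induced with 0.3% L-arabinose, DNA abundance read by NGS, three biological replicates, DESeq2 with apeglm shrinkage.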

Sequence	shrunken log2 fold change
RRIRDRPPRLPRPRPRPIKKPRP	0.0559
RRIRDRPPRLPRPRPRPIKRPRP	0.000716
RRIRDRPPRLPRPRPRPIKWPRP	-0.147
RRIRDRPPRLPRPRPRPILMPRP	0.303
RRIRDRPPRLPRPRPRPILNPRP	-0.184
RRIRDRPPRLPRPRPRPINKPRP	-0.287
RRIRDRPPRLPRPRPRPIPAPRP	0.0318
RRIRDRPPRLPRPRPRPIPHPRP	-0.051
RRIRDRPPRLPRPRPRPIQAPRP	0.119
RRIRDRPPRLPRPRPRPIREPRP	-0.00227
RRIRDRPPRLPRPRPRPIRWPRP	0.13
RRIRDRPPRLPRPRPRPITFPRP	-0.822
RRIRDRPPRLPRPRPRPITSPRP	-0.00293
RRIRDRPPRLPRPRPRPIVDPRP	-0.000946
RRIRDRPPRLPRPRPRPIVRPRP	-0.00112
RRIRDRPPRLPRPRPRPIVVPRP	0.218
RRIRDRPPRLPRPRPRPIVWPRP	-0.0132
RRIRDRPPRLPRPRPRPIYEPRP	0.0032
RRIRDRPPRLPRPRPRPKADPRP	-0.0266
RRIRDRPPRLPRPRPRPKCHPRP	0.028
RRIRDRPPRLPRPRPRPKCSPRP	0.243
RRIRDRPPRLPRPRPRPKFRPRP	0.152
RRIRDRPPRLPRPRPRPKHQPRP	0.0157
RRIRDRPPRLPRPRPRPKICPRP	0.0258
RRIRDRPPRLPRPRPRPKISPRP	-0.203

Sequence	shrunken log2 fold change
RRIRDRPPRLPRPRPRPKLGPRP	-0.000429
RRIRDRPPRLPRPRPRPKLPPRP	0.0818
RRIRDRPPRLPRPRPRPKPAPRP	0.278
RRIRDRPPRLPRPRPRPKQHPRP	0.0788
RRIRDRPPRLPRPRPRPKQLPRP	0.217
RRIRDRPPRLPRPRPRPKQWPRP	0.109
RRIRDRPPRLPRPRPRPKQYPRP	-0.839
RRIRDRPPRLPRPRPRPKRDPRP	0.145
RRIRDRPPRLPRPRPRPKSGPRP	0.0754
RRIRDRPPRLPRPRPRPKSSPRP	0.0319
RRIRDRPPRLPRPRPRPKTQPRP	-0.0316
RRIRDRPPRLPRPRPRPKTYPRP	-0.227
RRIRDRPPRLPRPRPRPKVDPRP	-0.118
RRIRDRPPRLPRPRPRPKVTPRP	-0.0277
RRIRDRPPRLPRPRPRPKVWPRP	0.437
RRIRDRPPRLPRPRPRPKWHPRP	0.179
RRIRDRPPRLPRPRPRPKWSPRP	-0.0182
RRIRDRPPRLPRPRPRPLAMPRP	0.767
RRIRDRPPRLPRPRPRPLAQPRP	0.83
RRIRDRPPRLPRPRPRPLCEPRP	0.715
RRIRDRPPRLPRPRPRPLCFPRP	0.0676
RRIRDRPPRLPRPRPRPLEIPRP	0.287
RRIRDRPPRLPRPRPRPLFEPRP	0.7
RRIRDRPPRLPRPRPRPLFRPRP	-0.168
RRIRDRPPRLPRPRPRPLGCPRP	0.206

Sequence	shrunken log2 fold change
RRIRDRPPRLPRPRPRPLGEPRP	0.147
RRIRDRPPRLPRPRPRPLGRPRP	0.0897
RRIRDRPPRLPRPRPRPLGSPRP	0.2
RRIRDRPPRLPRPRPRPLHKPRP	0.0824
RRIRDRPPRLPRPRPRPLHYPRP	-0.0982
RRIRDRPPRLPRPRPRPLKFPRP	0.0649
RRIRDRPPRLPRPRPRPLMTPRP	0.195
RRIRDRPPRLPRPRPRPLNGPRP	-0.00962
RRIRDRPPRLPRPRPRPLPGPRP	0.312
RRIRDRPPRLPRPRPRPLPIPRP	0.162
RRIRDRPPRLPRPRPRPLQHPRP	0.0148
RRIRDRPPRLPRPRPRPLQWPRP	0.219
RRIRDRPPRLPRPRPRPLRGPRP	0.112
RRIRDRPPRLPRPRPRPLSFPRP	0.0422
RRIRDRPPRLPRPRPRPLVAPRP	0.912
RRIRDRPPRLPRPRPRPLVIPRP	-0.0438
RRIRDRPPRLPRPRPRPLVTPRP	0.486
RRIRDRPPRLPRPRPRPLWIPRP	-0.421
RRIRDRPPRLPRPRPRPLWPPRP	0.662
RRIRDRPPRLPRPRPRPMCMPRP	0.0237
RRIRDRPPRLPRPRPRPMEAPRP	-0.0266
RRIRDRPPRLPRPRPRPMEDPRP	-0.0288
RRIRDRPPRLPRPRPRPMFAPRP	0.199
RRIRDRPPRLPRPRPRPMGIPRP	0.0303
RRIRDRPPRLPRPRPRPMHAPRP	0.121
